Reference: the Human Domainome abundance scans (Beltran et al. 2025)
± gives the uncertainty stated by the source.

B1: SAM and SH3 domain-containing protein 1, residues 630 to 700; numbered along this chain, O94885 (parent)
chain: GRPPQPKSVEDLLDRINLKEHMPTFLFNGYEDLDTFKLLEEEDLDELNIRDPEHRAVLLTAVELLQEYDSN

Variants of: B1
Experiment: abundance fitness (aPCA) (normalised: wild type 0, dead -1); higher = more abundant; growth selection in yeast, the domain comes from the species named
Conditions: Homo sapiens

**Q.** Which abundance fitness does the source give for GRPPQPKSVEDLLDRINLKEHMPTFLFNGYEDLDTFKLLEEEDLDELNIEDPEHRAVLLTAVELLQEYDSN [R50E] here?
**A.** The abundance fitness was -0.146 ± 0.057.

**Q.** Which abundance fitness does the source give for GRPPQPKSVEDLLDRINLKEHMPTFLFNGYEDLDTFKLLEEEDLDELNIHDPEHRAVLLTAVELLQEYDSN [R50H] here?
**A.** The abundance fitness was 0.072 ± 0.046.

**Q.** For GRPPQPKSVEDLLDRINLKEHMPTFLFNGYTDLDTFKLLEEEDLDELNIRDPEHRAVLLTAVELLQEYDSN [E31T], which abundance fitness is on record?
**A.** The abundance fitness was 0.251 ± 0.033.

**Q.** With GRPPQPKSVEDLLDRINLKEHMPTFLFNGYEDLDTFKLLEEEDLDELNIRDPEHRAVLLTAVELLQEYDSW [N71W] as the variant, how does the abundance fitness read?
**A.** The abundance fitness was -0.256 ± 0.087.

**Q.** Which abundance fitness does the source give for GRPPQPKSVEDLLDRINLKEHMPTFLFNGYEDLDTFKLLEEEDLDELNIRDPEHRAVLLTAVELLQEYSSN [D69S] here?
**A.** Its abundance fitness is -0.296 ± 0.04.

**Q.** For GRPPQPKSVEDLLDRINLKEHMPTFLFNGYEDLDTFKLLEEEDLDELNIRDPEHRAVLLTAVELLQEYMSN [D69M], which abundance fitness is on record?
**A.** The abundance fitness was -0.822 ± 0.079.

**Q.** Which abundance fitness does the source give for GRPPQPKSVEDLLDRINLKEHMPTFLFNGYEDLDTFKLLEEEDLDELNIRDPEHRAVLLTAVELLQEYNSN [D69N] here?
**A.** The abundance fitness was -0.289 ± 0.058.

**Q.** With GRPPQPKSVEDLLDGINLKEHMPTFLFNGYEDLDTFKLLEEEDLDELNIRDPEHRAVLLTAVELLQEYDSN [R15G] as the variant, how does the abundance fitness read?
**A.** The abundance fitness was -0.342 ± 0.049.

**Q.** With GRPPQPKSGEDLLDRINLKEHMPTFLFNGYEDLDTFKLLEEEDLDELNIRDPEHRAVLLTAVELLQEYDSN [V9G] as the variant, how does the abundance fitness read?
**A.** The abundance fitness was -0.868 ± 0.081.

**Q.** For GRPPQPKSEEDLLDRINLKEHMPTFLFNGYEDLDTFKLLEEEDLDELNIRDPEHRAVLLTAVELLQEYDSN [V9E], which abundance fitness is on record?
**A.** The abundance fitness was -0.876 ± 0.13.

**Q.** For GRPPQPKSVEDVLDRINLKEHMPTFLFNGYEDLDTFKLLEEEDLDELNIRDPEHRAVLLTAVELLQEYDSN [L12V], which abundance fitness is on record?
**A.** The abundance fitness was -0.464 ± 0.045.

**Q.** For GRPPQPKSVEDLLSRINLKEHMPTFLFNGYEDLDTFKLLEEEDLDELNIRDPEHRAVLLTAVELLQEYDSN [D14S], which abundance fitness is on record?
**A.** The abundance fitness was -0.168 ± 0.039.

**Q.** Which abundance fitness does the source give for GRPPQPKSVEDLLDRINLKEHMPTFLFNGYEDLDTFKLLEEEDLDELNIRDPEHRYVLLTAVELLQEYDSN [A56Y] here?
**A.** The abundance fitness was -0.605 ± 0.054.

**Q.** For GRPPQPKSVEDLLDRINLKEHMPTFLFNGYEDLDTFKLLEEEDLDELNIRDPEHRAVLLTAVHLLQEYDSN [E63H], which abundance fitness is on record?
**A.** Its abundance fitness is -0.075 ± 0.042.

**Q.** With GRPPQPKSVEDLLDRINLKEHMPTFLFNGYEDLDTFKLLEEEDLDELNIRDPEHRAVLLTAVILLQEYDSN [E63I] as the variant, how does the abundance fitness read?
**A.** Its abundance fitness is -0.898 ± 0.077.

**Q.** With GRPPQPKSVEDLLDRINLKEHMPTFLFNGYEDLDTFKLLEEEDLDELNIRDPEHRAVLLTAVELLQEMDSN [Y68M] as the variant, how does the abundance fitness read?
**A.** The abundance fitness was 0.025 ± 0.053.

**Q.** For GRPPQPKSVEDLLDRINLKEHMPTFLFNGYEDLDTFKLLEEEDLDELNIRDPEHRAVLLTAVELLQEQDSN [Y68Q], which abundance fitness is on record?
**A.** Its abundance fitness is 0.254 ± 0.048.

**Q.** With GRPPQPKSVEDLLDRINLKEHMPTFLFNGYEDLDTFKLLEEEDLDELNIRDPEHRAVLLTAVELLQEDDSN [Y68D] as the variant, how does the abundance fitness read?
**A.** Its abundance fitness is 0.076 ± 0.054.

**Q.** For GRPPQPKSVEDLLDRINLKEHMPTFLFNGYEDLDTFKLLEEEDLDELNIRDPEHRAVLLTAVELLQEGDSN [Y68G], which abundance fitness is on record?
**A.** The abundance fitness was 0.168 ± 0.041.

**Q.** For GRPPQPKSVEDLLDRINLKEHMPTFLFNGYEDLDTFKLLEEEDLDELNIRDPEHRAVLLTAVELLQENDSN [Y68N], which abundance fitness is on record?
**A.** The abundance fitness was 0.138 ± 0.053.

**Q.** Which abundance fitness does the source give for GRPPQPKSVEDLLDRINLKEHMPTFLFNGYEDLDTFKLLEEEDLGELNIRDPEHRAVLLTAVELLQEYDSN [D45G] here?
**A.** The abundance fitness was -0.812 ± 0.077.

**Q.** With GRPPQPKSVEDLLDRINLKEHMPTFLFNGYEDLDTFKLLEEEDLFELNIRDPEHRAVLLTAVELLQEYDSN [D45F] as the variant, how does the abundance fitness read?
**A.** The abundance fitness was -0.48 ± 0.049.

**Q.** With GRPPQPKSVEDLLDRINLKEHMPTFLFNGYEDLDTFKLLEEEDLDELNIRDPEHRAVLLTAVELLQPYDSN [E67P] as the variant, how does the abundance fitness read?
**A.** Its abundance fitness is -0.457 ± 0.049.

**Q.** For GRPPQPKSVEDLLDRINLKEHMSTFLFNGYEDLDTFKLLEEEDLDELNIRDPEHRAVLLTAVELLQEYDSN [P23S], which abundance fitness is on record?
**A.** Its abundance fitness is 0.038 ± 0.037.

**Q.** With IRPPQPKSVEDLLDRINLKEHMPTFLFNGYEDLDTFKLLEEEDLDELNIRDPEHRAVLLTAVELLQEYDSN [G1I] as the variant, how does the abundance fitness read?
**A.** Its abundance fitness is 0.047 ± 0.082.

**Q.** For PRPPQPKSVEDLLDRINLKEHMPTFLFNGYEDLDTFKLLEEEDLDELNIRDPEHRAVLLTAVELLQEYDSN [G1P], which abundance fitness is on record?
**A.** The abundance fitness was -0.137 ± 0.27.

**Q.** Which abundance fitness does the source give for GRPPQPKSVEDLLDRINLKEHMPTFLFNGYEDLDTFKLLEEEDLDELNIRDPEHRAVLLTALELLQEYDSN [V62L] here?
**A.** The abundance fitness was -0.647 ± 0.051.

**Q.** Which abundance fitness does the source give for GRPPQPKSVEDLLDRINLKEHMPTFLFNGYEDLDTFKLLEEEDLDELNIRDPEHRAVLLTAMELLQEYDSN [V62M] here?
**A.** Its abundance fitness is -0.648 ± 0.072.

**Q.** For GRPPQPKSVEDLLDRINLKRHMPTFLFNGYEDLDTFKLLEEEDLDELNIRDPEHRAVLLTAVELLQEYDSN [E20R], which abundance fitness is on record?
**A.** The abundance fitness was -0.596 ± 0.064.

**Q.** For GRPPQPKSVEDLLDRINLKEHMPTFLFNGYEDLDTFKLLEEEDLDELNWRDPEHRAVLLTAVELLQEYDSN [I49W], which abundance fitness is on record?
**A.** The abundance fitness was -0.823 ± 0.081.

**Q.** For GRPPQPKSVEPLLDRINLKEHMPTFLFNGYEDLDTFKLLEEEDLDELNIRDPEHRAVLLTAVELLQEYDSN [D11P], which abundance fitness is on record?
**A.** Its abundance fitness is -0.92 ± 0.071.

**Q.** Which abundance fitness does the source give for GRPPQPKSVEHLLDRINLKEHMPTFLFNGYEDLDTFKLLEEEDLDELNIRDPEHRAVLLTAVELLQEYDSN [D11H] here?
**A.** The abundance fitness was -0.78 ± 0.067.

**Q.** For GRPPQPKSVEDLLDRINLKEHMPTFLFNGYEDCDTFKLLEEEDLDELNIRDPEHRAVLLTAVELLQEYDSN [L33C], which abundance fitness is on record?
**A.** The abundance fitness was -0.881 ± 0.11.

**Q.** For GRPPQPKSVEDLLDRINLKERMPTFLFNGYEDLDTFKLLEEEDLDELNIRDPEHRAVLLTAVELLQEYDSN [H21R], which abundance fitness is on record?
**A.** The abundance fitness was -0.921 ± 0.056.

**Q.** Which abundance fitness does the source give for GRPPQPKSVEDLLDRINLKECMPTFLFNGYEDLDTFKLLEEEDLDELNIRDPEHRAVLLTAVELLQEYDSN [H21C] here?
**A.** Its abundance fitness is -0.536 ± 0.058.

**Q.** Which abundance fitness does the source give for GRPPQPKSVEDLLDRANLKEHMPTFLFNGYEDLDTFKLLEEEDLDELNIRDPEHRAVLLTAVELLQEYDSN [I16A] here?
**A.** The abundance fitness was -0.424 ± 0.062.

**Q.** Which abundance fitness does the source give for GRPPQLKSVEDLLDRINLKEHMPTFLFNGYEDLDTFKLLEEEDLDELNIRDPEHRAVLLTAVELLQEYDSN [P6L] here?
**A.** Its abundance fitness is -0.434 ± 0.045.

**Q.** With GRPPQPKSVEDLLDRINLKEHMPTFLFNGYEDLDTFKLLEEEDLDELNIRDPEHMAVLLTAVELLQEYDSN [R55M] as the variant, how does the abundance fitness read?
**A.** Its abundance fitness is -0.896 ± 0.1.

**Q.** For GRPPQPKSVEDLLDRINLKEHMPSFLFNGYEDLDTFKLLEEEDLDELNIRDPEHRAVLLTAVELLQEYDSN [T24S], which abundance fitness is on record?
**A.** The abundance fitness was -0.464 ± 0.044.
